Data on one molecule can be found in article doi:10.1101/625400, “Massively parallel reporter assays combined with cell-type specific eQTL informed multiple melanoma loci and identified a pleiotropic function of HIV-1 restriction gene, MX2, in melanoma promotion”.

The target of this data set is YY1 full-length recombinant (Active Motif 31332) (UniProt P25490 1-414). Description: EMSA; 100-750 ng YY1, 10 mM Mg2+; EMSA: 10 mM Tris pH 7.5, 50 mM KCl, 1 mM DTT, 10 mM MgCl2, 4 C, 30 min (poly d(I-C) with nuclear extract). The settings on record: protein: commercial; label: 5' biotin (both strands); blunt. A general note: A gel shift assay detects complexes by their altered migration in electrophoresis.
Chain of YY1 full-length recombinant (Active Motif 31332) (P25490 whole entry): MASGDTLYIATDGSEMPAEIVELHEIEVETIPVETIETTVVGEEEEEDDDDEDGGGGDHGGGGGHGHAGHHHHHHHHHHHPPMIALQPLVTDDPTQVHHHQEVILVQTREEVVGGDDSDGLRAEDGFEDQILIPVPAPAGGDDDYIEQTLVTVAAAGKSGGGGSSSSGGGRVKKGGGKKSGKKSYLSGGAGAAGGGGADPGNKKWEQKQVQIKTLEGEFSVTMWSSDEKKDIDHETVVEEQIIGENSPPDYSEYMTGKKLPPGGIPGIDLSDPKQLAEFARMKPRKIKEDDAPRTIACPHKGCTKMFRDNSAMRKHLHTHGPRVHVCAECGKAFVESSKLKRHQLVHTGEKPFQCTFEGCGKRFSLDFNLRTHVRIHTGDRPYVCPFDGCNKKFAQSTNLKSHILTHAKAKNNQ

B1: rs398206 A allele EMSA probe (dsDNA)
DNA 1: GTCCGTCCCAACATGGCGGGT
DNA 2: ACCCGCCATGTTGGGACGGAC
Regarding B1, the binding result is recorded as “binds”.
